Data set [1] concerns the target T1, Bgl3A (Evansstolkia leycettana, UniProt A0A1B0VFN7).
T1 construct: no tag mentioned
The data set is described as follows: glucose release (GOD-POD), Michaelis-Menten fit. As to conditions: read-out: Cellobiose / Km; 75 °C, pH 4.5, Na2HPO4-citric acid buffer. Format: biochemical.

Data set [2] addresses T1, Bgl3A. The data set is described as follows: p-nitrophenol release at […] nm, Michaelis-Menten fit. The class given is biochemical. As to conditions: read-out: pNPG / Km; 75 °C, pH 4.5, Na2HPO4-citric acid buffer.
Substrate in the data set “purified protein”: O=[N+]([O-])c1ccc(O[C@@H]2O[C@H](CO)[C@@H](O)[C@H](O)[C@H]2O)cc1
The data set is described as follows: purified protein. As to conditions: 75 °C, pH 4.5, Na2HPO4-citric acid buffer.

T1 sequence (A0A1B0VFN7 entry or part of it): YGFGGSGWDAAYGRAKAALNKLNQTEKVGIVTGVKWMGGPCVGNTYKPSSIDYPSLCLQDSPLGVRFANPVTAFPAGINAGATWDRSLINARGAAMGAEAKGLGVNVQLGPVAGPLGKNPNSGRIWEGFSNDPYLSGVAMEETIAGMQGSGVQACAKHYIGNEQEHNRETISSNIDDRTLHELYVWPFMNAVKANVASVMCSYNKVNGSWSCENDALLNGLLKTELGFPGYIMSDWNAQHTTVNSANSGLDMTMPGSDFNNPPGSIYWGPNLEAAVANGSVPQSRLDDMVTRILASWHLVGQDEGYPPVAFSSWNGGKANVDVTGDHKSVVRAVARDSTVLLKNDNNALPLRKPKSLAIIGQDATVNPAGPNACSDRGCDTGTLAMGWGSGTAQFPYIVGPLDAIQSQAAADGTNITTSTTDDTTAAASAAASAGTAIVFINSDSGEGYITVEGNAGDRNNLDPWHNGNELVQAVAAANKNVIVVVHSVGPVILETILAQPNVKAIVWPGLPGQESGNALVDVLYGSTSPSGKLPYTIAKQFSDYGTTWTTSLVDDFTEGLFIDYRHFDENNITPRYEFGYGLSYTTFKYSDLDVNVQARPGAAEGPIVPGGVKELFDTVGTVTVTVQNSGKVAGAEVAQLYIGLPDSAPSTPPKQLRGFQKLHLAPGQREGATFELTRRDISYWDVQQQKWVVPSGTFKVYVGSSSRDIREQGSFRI

As for `OC[C@H]1O[C@@H](O[C@H]2[C@H](O)[C@@H](O)C(O)O[C@@H]2CO)[C@H](O)[C@@H](O)[C@@H]1O` (some centres unmarked) [cellobiose], at Bgl3A [1], the Km was determined as 10400 ± 400 µM.
Take `O=[N+]([O-])c1ccc(O[C@@H]2O[C@H](CO)[C@@H](O)[C@H](O)[C@H]2O)cc1` [4-nitrophenyl β-D-glucopyranoside]: the Km on Bgl3A [2] was found to be 180 ± 30 µM.

B1: Bgl3A (Evansstolkia leycettana; F86Y) (protein)
chain: YGFGGSGWDAAYGRAKAALNKLNQTEKVGIVTGVKWMGGPCVGNTYKPSSIDYPSLCLQDSPLGVRYANPVTAFPAGINAGATWDRSLINARGAAMGAEAKGLGVNVQLGPVAGPLGKNPNSGRIWEGFSNDPYLSGVAMEETIAGMQGSGVQACAKHYIGNEQEHNRETISSNIDDRTLHELYVWPFMNAVKANVASVMCSYNKVNGSWSCENDALLNGLLKTELGFPGYIMSDWNAQHTTVNSANSGLDMTMPGSDFNNPPGSIYWGPNLEAAVANGSVPQSRLDDMVTRILASWHLVGQDEGYPPVAFSSWNGGKANVDVTGDHKSVVRAVARDSTVLLKNDNNALPLRKPKSLAIIGQDATVNPAGPNACSDRGCDTGTLAMGWGSGTAQFPYIVGPLDAIQSQAAADGTNITTSTTDDTTAAASAAASAGTAIVFINSDSGEGYITVEGNAGDRNNLDPWHNGNELVQAVAAANKNVIVVVHSVGPVILETILAQPNVKAIVWPGLPGQESGNALVDVLYGSTSPSGKLPYTIAKQFSDYGTTWTTSLVDDFTEGLFIDYRHFDENNITPRYEFGYGLSYTTFKYSDLDVNVQARPGAAEGPIVPGGVKELFDTVGTVTVTVQNSGKVAGAEVAQLYIGLPDSAPSTPPKQLRGFQKLHLAPGQREGATFELTRRDISYWDVQQQKWVVPSGTFKVYVGSSSRDIREQGSFRI
B1: in the data set “purified protein”, the Km was found to be 240 ± 20 µM, the kcat worked out at 1770 s⁻¹ and the kcat/Km was determined as 7.45e+06 M⁻¹ s⁻¹.

B2: Bgl3A (Evansstolkia leycettana; M56E) (protein)
chain: YGFGGSGWDAAYGRAKAALNKLNQTEKVGIVTGVKWEGGPCVGNTYKPSSIDYPSLCLQDSPLGVRFANPVTAFPAGINAGATWDRSLINARGAAMGAEAKGLGVNVQLGPVAGPLGKNPNSGRIWEGFSNDPYLSGVAMEETIAGMQGSGVQACAKHYIGNEQEHNRETISSNIDDRTLHELYVWPFMNAVKANVASVMCSYNKVNGSWSCENDALLNGLLKTELGFPGYIMSDWNAQHTTVNSANSGLDMTMPGSDFNNPPGSIYWGPNLEAAVANGSVPQSRLDDMVTRILASWHLVGQDEGYPPVAFSSWNGGKANVDVTGDHKSVVRAVARDSTVLLKNDNNALPLRKPKSLAIIGQDATVNPAGPNACSDRGCDTGTLAMGWGSGTAQFPYIVGPLDAIQSQAAADGTNITTSTTDDTTAAASAAASAGTAIVFINSDSGEGYITVEGNAGDRNNLDPWHNGNELVQAVAAANKNVIVVVHSVGPVILETILAQPNVKAIVWPGLPGQESGNALVDVLYGSTSPSGKLPYTIAKQFSDYGTTWTTSLVDDFTEGLFIDYRHFDENNITPRYEFGYGLSYTTFKYSDLDVNVQARPGAAEGPIVPGGVKELFDTVGTVTVTVQNSGKVAGAEVAQLYIGLPDSAPSTPPKQLRGFQKLHLAPGQREGATFELTRRDISYWDVQQQKWVVPSGTFKVYVGSSSRDIREQGSFRI
Turning to B2, in “purified protein”, the Km worked out at 250 ± 30 µM, the catalytic constant (kcat) was found to be 1800 s⁻¹ and the kcat/Km stood at 7.09e+06 M⁻¹ s⁻¹.

B3: Bgl3A (Evansstolkia leycettana; E188Q) (protein)
chain: YGFGGSGWDAAYGRAKAALNKLNQTEKVGIVTGVKWMGGPCVGNTYKPSSIDYPSLCLQDSPLGVRFANPVTAFPAGINAGATWDRSLINARGAAMGAEAKGLGVNVQLGPVAGPLGKNPNSGRIWEGFSNDPYLSGVAMEETIAGMQGSGVQACAKHYIGNEQEHNRQTISSNIDDRTLHELYVWPFMNAVKANVASVMCSYNKVNGSWSCENDALLNGLLKTELGFPGYIMSDWNAQHTTVNSANSGLDMTMPGSDFNNPPGSIYWGPNLEAAVANGSVPQSRLDDMVTRILASWHLVGQDEGYPPVAFSSWNGGKANVDVTGDHKSVVRAVARDSTVLLKNDNNALPLRKPKSLAIIGQDATVNPAGPNACSDRGCDTGTLAMGWGSGTAQFPYIVGPLDAIQSQAAADGTNITTSTTDDTTAAASAAASAGTAIVFINSDSGEGYITVEGNAGDRNNLDPWHNGNELVQAVAAANKNVIVVVHSVGPVILETILAQPNVKAIVWPGLPGQESGNALVDVLYGSTSPSGKLPYTIAKQFSDYGTTWTTSLVDDFTEGLFIDYRHFDENNITPRYEFGYGLSYTTFKYSDLDVNVQARPGAAEGPIVPGGVKELFDTVGTVTVTVQNSGKVAGAEVAQLYIGLPDSAPSTPPKQLRGFQKLHLAPGQREGATFELTRRDISYWDVQQQKWVVPSGTFKVYVGSSSRDIREQGSFRI
Take B3: in the data set “purified protein”, the Km was 210 ± 30 µM, the kcat was determined as 1740 s⁻¹ and the kcat/Km turned out to be 8.39e+06 M⁻¹ s⁻¹.

B4: Bgl3A (Evansstolkia leycettana; M56N) (protein)
chain: YGFGGSGWDAAYGRAKAALNKLNQTEKVGIVTGVKWNGGPCVGNTYKPSSIDYPSLCLQDSPLGVRFANPVTAFPAGINAGATWDRSLINARGAAMGAEAKGLGVNVQLGPVAGPLGKNPNSGRIWEGFSNDPYLSGVAMEETIAGMQGSGVQACAKHYIGNEQEHNRETISSNIDDRTLHELYVWPFMNAVKANVASVMCSYNKVNGSWSCENDALLNGLLKTELGFPGYIMSDWNAQHTTVNSANSGLDMTMPGSDFNNPPGSIYWGPNLEAAVANGSVPQSRLDDMVTRILASWHLVGQDEGYPPVAFSSWNGGKANVDVTGDHKSVVRAVARDSTVLLKNDNNALPLRKPKSLAIIGQDATVNPAGPNACSDRGCDTGTLAMGWGSGTAQFPYIVGPLDAIQSQAAADGTNITTSTTDDTTAAASAAASAGTAIVFINSDSGEGYITVEGNAGDRNNLDPWHNGNELVQAVAAANKNVIVVVHSVGPVILETILAQPNVKAIVWPGLPGQESGNALVDVLYGSTSPSGKLPYTIAKQFSDYGTTWTTSLVDDFTEGLFIDYRHFDENNITPRYEFGYGLSYTTFKYSDLDVNVQARPGAAEGPIVPGGVKELFDTVGTVTVTVQNSGKVAGAEVAQLYIGLPDSAPSTPPKQLRGFQKLHLAPGQREGATFELTRRDISYWDVQQQKWVVPSGTFKVYVGSSSRDIREQGSFRI
Consider B4, for which, in “purified protein”, the Km turned out to be 590 ± 70 µM, the catalytic constant (kcat) came out at 1070 s⁻¹ and the kcat/Km was 1.79e+06 M⁻¹ s⁻¹.

By kcat is commonly meant the maximal rate divided by the concentration of active sites. As usually defined, the kcat/Km is the turnover number divided by the Michaelis constant.

For the origin of these results see article PMC8699594, “Improving the Substrate Affinity and Catalytic Efficiency of β-Glucosidase Bgl3A from Talaromyces leycettanus JCM12802 by Rational Design” (Biomolecules, 2021).
